Measured values taken from publication PMC10673952.

Columns and labels:
[1] = target: Fluorescein-labeled FimDN (E. coli); assay: stopped-flow fluorescence kinetics; fluorescein-labeled FimDN (0.4 μM) mixed with different concentrations of FimCI; 23 °C, 20 mM Tris-HCl pH 8.0; traces fitted globally to second-order binding and first-order dissociation
[2] = target: T1, FimA-FimAt (the two subunits of the ternary FimCAA complex) (E. coli) (UniProt P04128); assay: chaperone exchange kinetics followed by analytical cation exchange chromatography; 4 μM complex incubated with a 9-fold molar excess (36 μM) of the differently tagged FimC (untagged FimC against FimCHis complexes, FimCHis against FimCA and FimCAA); 20 mM MES-NaOH pH 6.0, 37 °C; single-exponential fit
T1 sequence (P04128 24-182, looked up): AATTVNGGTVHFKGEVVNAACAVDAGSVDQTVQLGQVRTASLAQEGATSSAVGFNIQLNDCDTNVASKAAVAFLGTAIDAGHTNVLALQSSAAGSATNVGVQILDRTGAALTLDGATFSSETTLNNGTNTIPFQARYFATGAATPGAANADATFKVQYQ

Fluorescein-labeled FimDN (E. coli), sequence (P30130 46-170 limits assumed): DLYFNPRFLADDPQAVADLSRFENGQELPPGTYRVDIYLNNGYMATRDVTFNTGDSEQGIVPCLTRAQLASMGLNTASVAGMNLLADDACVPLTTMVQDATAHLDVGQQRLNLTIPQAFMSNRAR
FimC-FimI complex (FimCI), sequence (P31697 37-241): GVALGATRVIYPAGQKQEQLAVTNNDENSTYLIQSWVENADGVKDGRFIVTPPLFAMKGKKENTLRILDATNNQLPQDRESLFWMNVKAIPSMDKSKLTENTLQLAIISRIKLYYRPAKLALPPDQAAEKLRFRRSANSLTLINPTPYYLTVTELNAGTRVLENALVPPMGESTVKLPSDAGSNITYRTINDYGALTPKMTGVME
FimC-FimI complex (FimCI), sequence (P39264 20-179): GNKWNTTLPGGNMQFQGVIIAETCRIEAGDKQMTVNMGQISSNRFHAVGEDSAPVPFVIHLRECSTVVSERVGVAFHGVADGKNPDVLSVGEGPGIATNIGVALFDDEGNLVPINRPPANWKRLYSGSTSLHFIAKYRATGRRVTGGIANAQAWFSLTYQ
FimC, sequence (P31697 37-241): as the sequence (P31697 37-241) above

koff [1] [s⁻¹]	kon [1] [M⁻¹ s⁻¹]	dissociation half-life [2] [min]	Substance
94	1.45e+08	–	FimC-FimI complex (FimCI) (from UniProt P31697 37-241; P39264 20-179)
–	–	17.7	FimC (from UniProt P31697 37-241) (natural protein)
